# Measurements published in the domain aggregation screens of Martell et al. (2025).
# Test: soluble fraction after stress (log2 fold change); higher = more stays soluble; pooled small domains, quantitative proteomics
# Conditions: stress: 50 degC
# Procedure, shortened: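 Pooled custom libraries of small protein domains were each held under stress at 50°C. The read-out, high-throughput quantitative proteomics, tracked how much of each protein stayed soluble. This is reported as a base-two log fold change used to indicate aggregation propensity. Higher values mean more protein remains in solution.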
row,Sequence,soluble fraction (log2)
1,HMITNSTEIEAMIDSLIKENPEQAEQYRNGNTKVVGWFVGQMMKASKGKANPQVVGDLLAQKLVG,0.0323
2,HMIVAHEINRHLGESDQPVEIPDNRREGAVAELLKTFNNDDAFREMDDGKYEVALDGEKVREAARSLLA,0.027
3,HMIVDARNREINLGSHVRYVDTGTVGEVTDSKVENDASWVKIDKTNLWYLANKLELLNDEDFKT,0.0653
4,HMIVDINDVRIDKYIADNTDYSRNLILNLIKNGDILVNDSKIKPSYKVKQGDKITINNVKTD,0.227
5,HMIVKQPDIRKQELLDIGVRLYFEAGEKGVSIQQVVKQAGVATGLFYYYFSSKDAFLDEALNDYID,0.102
6,HMIVLPGEELEVHIVQEGKEDGQGVAYLDDGTMVVVEGGRPYVDSFAYVAVTRVLQTGAGRIIFAHPTR,-0.832
7,HMIYNSGTTDSRGEAIVGGYLVTVTDTDTKDPVANAAVTLHKDNSISIRLPNSRLLDYADQTTVTVQLV,-0.0327
8,HMKAEKEIEKIKFTIYNEFKRKQEENHFLPPWDGTKMLRQFVLGVVANNPKYQHVNTDILYRDLLLLYYQ,-0.968
9,HMKAFTKKELQDLVLNIFRASPTTNYNYKQLYKLIRGKDPEIKTLIIAVLLGLEKNGSILQMRPGKYKFS,0.593
10,HMKALDTVLSEIPGLGPVRIKQLLKVFGSVDAIRKASLQDLQQIEGIGPKLAQTIYEYFHQP,≥ 0.62
11,HMKALYNLDYEKPLSGSYYTETTARAAVPTDIRKLGLIITYKTDATTNITEQFVGSSISAWTTSGNWKSLG,-0.424
12,HMKAPPLTDREKEILRWVAAGLQNKEIAHKLGISLATVRNHIHNILEKLDVHSKLEAVSLAFRQGWVS,-0.0741
13,HMKASEMKKGQTIKIDGVLYVIVDFQHVKLSKGGAVYQTKLRNLAAGGIRDIRIRAEEVLEDA,-0.311
14,HMKDITPASEDQLKAITDLMLKVNGEWSDAFFTFISKKFNHQISSPEQLTTFEANTIIDMLRKKAEG,0.192
15,HMKDLDSLSQEAKSVYAVFSDKPIHIDDIKRKTGLDFSKLFKAVTELELAELISSGEGKMYSL,-0.0108
16,HMKDLTIRQQQFLNYIKDHLSLTGFPPTRSDIANEMGFKSPNAAEDHLRALARKGAIEIVPGTSRGIRLP,-0.24
17,HMKDMKISTKNLLQELAKNYPDQTSFRKNVIETTARAMGYTGKDFYPLLTTDNRVKIGTYDLATFLRSI,-0.718
18,HMKDNPNETFERIAGKITRTLRSGPVRIQQLDLLFSESAGKVVDVLRAMAENGEVLIKDDTIQLNGNN,0.0379
19,HMKDTFHNLSEEKRERIIRAALGEFAASGYEKATLDGVVQAAGISKGGLYEYISSKEDLFRYLLEYSYD,-1.53
20,HMKDTNENLMKMLALLIHAAKIDENYSDEEKELIVNFAEMSSKENLNREQILSIIKSAEEYE,-0.702
21,HMKEADVRKNEILDAAGILFSEKGYDNTSVTDIMNAVGFAKGTLYHHFKSKEDIMDALIKRQTD,0.219
22,HMKEAISIYPNPVKDILTIRGMDETSGVSFKLYDVTGNLLLESTHSELDMSGLNRGVYFLDIAGDVRKVVK,0.0696
23,HMKEEDLPREYTDILGNSVHERLNIMIHDIIEHSQDKPEVAMSPEREEAMHGLRRWMFDHVYH,-0.202

row,Sequence,soluble fraction (log2)
1,HMKEEVEILGGKATIYTNDYGVWQFRLWLTTDNKYVRKSLRTKVKDYAITEGEKLYIQIRSDIEKGIKYY,-1.13
2,HMKEEVSVPDIKGMTYEEAEAKLAKYDLEIEKGETVKASEQYEEGQISSQEPEAGSKVKEGSTIVVDVVE,0.316
3,HMKEFSFNGGKVIMNYEADRIQIKHDSRPNQEVITLMKRNGFKWSPTNQAWQRQITGNAIYVTKNLLKS,-1.35
4,HMKEGGGYGQLRLKEAAIQHAFDLQNALQFIAERGYQAHENTTLKEAANALNLKPIELLELLKSSQ,0.281
5,HMKEIDVPNVVGASENAARKLLESYGFQVEVQWENGERVDNAVVKSYSPNGSAKSGSTVTIVLGT,0.062
6,HMKEINFTIEESAKGRLDKVIAENVADLTRSQVQSLIKKGQILVNDAPTTNRYQVKPNDQVIIKLPDPV,0.339
7,HMKEKLGEFENVFLSVDELQKLKSKLGAETESYIERLSNYIASSGKKYKSHYATILSWTQKDTK,-0.462
8,HMKELASKYEISEYMKFLIENLDKSNFFYPIEKRESMINNIFSIYSKADLSKKELNMLWGMLKKLR,-2.1
9,HMKELTELIEKIKLRRLELGLSYQELSDLTGINKSTLQRYETGFIKKVPINQVQIIAKALNVTPGYLMG,-0.28
10,HMKEMTAKQIDMFSDKLSKLESFQSHYIADAGVSVTEYKQAIAAKLQDQFYVEAWGKYLADVGFT,-0.505
11,HMKEPIYQTILSALILELNTNHFRKNDPFYSESELRKKYQVSSTTVVRVLNMLADQGYIYRIQGKGSFVSK,-2.37
12,HMKESFAQLFSLLTPTEQKVAALISQGFSNKDIAAKMFISLSTVKTHTNHIFAKMGVANRNALVAKVNN,-1.08
13,HMKESRFDYDAVLLYSDKDSITEVKDAVQHLTKEFGSVFTTKKIPEKATFGKLFRIEKGEVNIIEDN,-0.0248
14,HMKESRLFRILYYLLQHKKATAPELAEEFEVSVRTIYRDIDYISSAGVPIYATQGKDGGIAILDSF,-0.65
15,HMKETLSINSTDFEVRRSSRRKRISVGFDTGTETFFIAAPTKLAGTDILRILGPQISRLMDRLT,-1.95
16,HMKEVDERPWGKYEVLLDAPDVKVKRITVNPGQRLSYQYHEKRAEVWTVVSGILTIILEDDKLFRG,0.237
17,HMKFIPPSLEEARAYFVEKGSSEPEAEKFVNHFDSIGWKVGRARTPMKKWKSAANNWIANNREWNQ,-0.407
18,HMKFKDYYAALGIDRNADLEQIKKAYRKLARQYHPDVSKAPDAEARFKDAAEAYATLKNPEKRAAYDELGS,0.062
19,HMKFLHLADLHLGKRVNGFSMLEDQAYILRQILTILDDERPDGVLIAGDVYDKPVPPTEAVELLD,-0.604
20,HMKFLYQKAREEIISLIQDGEIKPSEKIMPERELSELLGYNRMTIKKAINSLVAEGVLMKKRGAGTFLLG,-0.387
21,HMKFLYQQVYQDIKDKITSAQYQFGDLLPSEREIGEEYHVDRTTVRKAFSLLVDEGLVEKRAGKGSVVIS,-0.594
22,HMKFTELEQLMLKREINTLADIARVLKTTPQAVSNWKARDQIPYHIVAKINASINKDSNDSSLSI,0.00789
23,HMKFTSEKDISLLELVKAKMGFVSNTKARNVIKIGQIMVSGKVIKIPSTLIKPGTEVELARRV,-1.66

row,Sequence,soluble fraction (log2)
1,HMKFYKMIDESDEKIENPEIMIFQIIELVSSTTYSAIINKEPVDVETLKPYLYQTIRTIIINHQS,0.144
2,HMKGEKVTKIELSNFIKFLINDLENKGFFNPPEKKDSMIDNIYSIYNKMTLTKKELNMLWGMHKKLK,-1.44
3,HMKGERHNKILELIQQHAIDRQEDLLRYLKEAGFQVTQATVSRDIRELHLVKVAAGGGQYRYVSAAAAS,-0.0903
4,HMKGIHDYITKDGLRVVKVHYSADPDKDVTTVEGKKWMAKALLGYPGGLEGAKWRREMEIDFNA,-0.0848
5,HMKGILVPASSIISDGDKNYVWTVEKGKAKKVEVTLGNADAENQEISSGLTKDSKVITNPTDSLKDGQEV,0.162
6,HMKGKDLQDAVVTVVGGAENWNAIRAWAQASASDSEKREINAAFQSGKLMATMMAERLALAYQQSG,-0.0897
7,HMKGKITTNWVSLTSDLGWLRSELYSSGSVLEERISNEGLIELHLENFQNDLIKLLEVEGFDLIKE,-3.1
8,HMKGQLVVFPNPASSNDMVRFNKNISFSIFDITGHLVDTKRNVNELSVGNLEAGTYILRTEQGDVLRMVI,-1.24
9,HMKGRPTTAIITDERTNLRSGPGATNKTIAQAGAGEKLAIIDEKDGWYQVSRAGINGWVAGWVIDVAW,-0.441
10,HMKGSIFLDEATKMVDNSALKSLNTFLEEYARETNNQIFLISHQETPAEVTQIKLKKVGGETSYE,0.124
11,HMKGSPFSQLPKEKKKRILQAAIEVFAQNDYKHASTDEIASRAGISKGLLFYYFHDKKTLYFYLGEYLKR,-0.0373
12,HMKGTLPEMITSREEVVLKFMVNGWDAKRIASELDISVLTVRKHIANIYEKLHVQSKAEIISMAHQQKWFN,-1.52
13,HMKGTSIELIVPQDIAGLRLDQVLAKLLPQWSRSRLQSWINEKHITVNGQTTTAKQKLWGNETIQIIPPI,-0.66
14,HMKHEFSEEWLDWIKSNIADGQNKNGLFKVLLNHGYAYDAVREVMQYEPTVPLDELVDPLRA,-0.139
15,HMKHFNDEELDGFAGLKSDDYNEEQVELFRNIFEELHPDEIIEWTESLRRRGIEIPSSLKDEVVMMIN,0.173
16,HMKHFTYEEMELMSIYDPGTREGLIANLEEMRGYLEPDETELRELTDSALEKLRELSDADYEQLELI,-0.476
17,HMKHMTMYEAAKIAKEVGAPKLWLTHYSPSMTRPEEFMDDVRKIFPAAYAAKDGWTMELNFDEG,-0.493
18,HMKHRTQMDIQQLPAIEGKGGFEYKISIIHLSTRIKYSEIHDNYNTTTIAKVYENAIERLPPF,-2.24
19,HMKHSLNHLGLWLLPELSRRDIQLREFAHLLGTTSQGLSDLLRGQRFSSHTLAQWQLRFQEKLDEIDQAS,-1.11
20,HMKHTVSVDRLQPGVFVSLGGLSWLDHPFLLNRFRLTDHDQIKVLRSLGVKEIEWDPTRSTAQPLPE,-0.437
21,HMKIAPRTAENQQLRKMILEIYTTSKKRVGPAKVRRMLLRDYGISISIGRVYRLMSTMNLPKMS,-0.258
22,HMKIDLPIWLNKKAWEAWVEYKKERKQKLTPSIIKFQLRILEKNKEDHPEIIRNSITNGWTGLFPLK,-1.27
23,HMKIEDSNTIKLKANQAYKTHYYSEAIKLYDELLTKYEPNSEAIKLNLAHAHFKAKGFAAASKLYT,0.144
